Experimental data taken from US10363306B2, “Cytokines and neuroantigens for treatment of immune disorders” (East Carolina University, priority 2009, dated 2019).

Assays:
EAE in Lewis rats [1] = assay: Prevention of EAE by pretreatment before encephalitogenic challenge; type: in vivo; conditions: HEK293-derived
EAE in Lewis rats [2] = assay: Treatment of ongoing EAE after disease onset; type: in vivo
[3] = Table 4 Exp. 1 & 2 combined, 1 nmole days −21, −14, −7, challenge day 0
[4] = Table 4 Exp. 1, 1 nmole in saline days −21, −14, −7, challenge DHFR-NAg in CFA day 0
[5] = Table 4 Exp. 2, 1 nmole in saline days −21, −14, −7, challenge DHFR-NAg in CFA day 0
[6] = Table 6 Experiment 1, s.c. day 9 (1 nmole), day 10 (1 nmole), day 12 (0.5 nmole) after DHFR-NAg in CFA day 0
[7] = Table 6 Experiment 2, 1 nmole s.c. on days 9, 10, 12, and 14 after DHFR-NAg in CFA day 0
[8] = Table 6 Experiments 1 & 2 compiled, treatment from day 9 after onset
[9] = Table 7 Experiment 2, 1 nmole s.c. days 9, 10, 12, and 14, severe EAE = scores from 1.0 to 3.0
[10] = Table 7 Experiment 2, 1 nmole s.c. in saline days 9, 10, 12, and 14, IFNβ + NAg as mixture
[11] = Table 7 Experiment 3, 1 nmole s.c. days 9, 10, and 12, severe EAE = scores from 1.0 to 3.0
[12] = Table 7 Experiment 3, 1 nmole s.c. in saline days 9, 10, and 12, IFNβ + NAg as mixture
[13] = Table 7 Experiments 1-3 compiled, 1 nmole s.c. after onset
[14] = Table 7 Experiments 1-3 compiled, severe EAE = scores from 1.0 to 3.0

B1: IFNβ: Rat interferon beta cytokine with enterokinase linker and 6-histidine sequence, no neuroantigen (protein)
chain: IDYKQLQFRQSTSIRTCQKLLRQLNGRLNLSYRTDFKIPMEVMHPSQMEKSYTAFAIQVMLQNVFLVFRSNFSSTGWNETIVESLLDELHQQTELLEIILKEKQEERLTWVTSTTTLGLKSYYWRVQRYLKDKKYNSYAWMVVRAEVFRNFSIILRLNRNFQNGDDDDKGHHHHHH
With B1 as the molecule, how does the “Incidence of EAE” value (EAE in Lewis rats [1]; [3]) read?
Its value is 8 of 8.

And the “Incidence of severe EAE” value (EAE in Lewis rats [1]; [3])?
The value was 8 of 8.

And the “Mean # days with severe EAE” value (EAE in Lewis rats [1]; [3])?
Its value is 3.4 ± 0.8 days.

And the Mean cumulative score (EAE in Lewis rats [1]; [3])?
The Mean cumulative score was 22.8 ± 4.0.

What about the Mean maximal score (EAE in Lewis rats [1]; [3]) of the same molecule?
Its Mean maximal score is 2.9 ± 0.4.

What about the Median cumulative score (EAE in Lewis rats [1]; [3]) of the same molecule?
The Median cumulative score was 22.5.

And the Median maximal score (EAE in Lewis rats [1]; [3])?
Its Median maximal score is 3.0.

And the “Mean # days with severe EAE” value (EAE in Lewis rats [1]; Table 4 Exp. 1, 1 nmole days −21, −14, −7, challenge day 0)?
Its value is 3.0 ± 0.4 days.

What about the “Incidence of severe EAE” value (EAE in Lewis rats [1]; Table 4 Exp. 1, 1 nmole days −21, −14, −7, challenge day 0, severe = partial or full hindlimb paralysis) of the same molecule?
The value was 4 of 4.

What about the “Incidence of EAE” value (EAE in Lewis rats [1]; [4]) of the same molecule?
Its value is 4 of 4.

What about the Mean cumulative score (EAE in Lewis rats [1]; [4]) of the same molecule?
Its Mean cumulative score is 22.0 ± 2.6.

What about the Mean maximal score (EAE in Lewis rats [1]; [4]) of the same molecule?
Its Mean maximal score is 3.0 ± 0.0.

And the Median cumulative score (EAE in Lewis rats [1]; [4])?
Its Median cumulative score is 21.3.

What about the Median maximal score (EAE in Lewis rats [1]; [4]) of the same molecule?
The Median maximal score was 3.0.

And the “Mean # days with severe EAE” value (EAE in Lewis rats [1]; Table 4 Exp. 2, 1 nmole days −21, −14, −7, challenge day 0)?
The value was 3.9 ± 0.9 days.

And the “Incidence of severe EAE” value (EAE in Lewis rats [1]; Table 4 Exp. 2, 1 nmole days −21, −14, −7, challenge day 0, severe = partial or full hindlimb paralysis)?
The value was 4 of 4.

And the “Incidence of EAE” value (EAE in Lewis rats [1]; [5])?
Its value is 4 of 4.

What about the Mean cumulative score (EAE in Lewis rats [1]; [5]) of the same molecule?
Its Mean cumulative score is 23.7 ± 5.3.

What about the Mean maximal score (EAE in Lewis rats [1]; [5]) of the same molecule?
The Mean maximal score was 2.8 ± 0.5.

What about the Median cumulative score (EAE in Lewis rats [1]; [5]) of the same molecule?
Its Median cumulative score is 23.6.

And the Median maximal score (EAE in Lewis rats [1]; [5])?
Its Median maximal score is 3.0.

What about the “% mean maximal weight loss” value (EAE in Lewis rats [2]; [6]) of the same molecule?
Its value is 10.6 ± 5.3%.

What about the “Incidence of severe EAE” value (EAE in Lewis rats [2]; [6]) of the same molecule?
The value was 5 of 6.

And the “Mean # days with severe EAE” value (EAE in Lewis rats [2]; [6])?
Its value is 1.4 ± 1.1 days.

And the Mean cum. score (EAE in Lewis rats [2]; [6])?
Its Mean cum. score is 11.1 ± 5.1.

What about the Mean maximal score (EAE in Lewis rats [2]; [6]) of the same molecule?
The Mean maximal score was 2.2 ± 0.8.

What about the Median cum. score (EAE in Lewis rats [2]; [6]) of the same molecule?
The Median cum. score was 10.3.

And the Median maximal score (EAE in Lewis rats [2]; [6])?
Its Median maximal score is 2.0.

What about the “% mean maximal weight loss” value (EAE in Lewis rats [2]; [7]) of the same molecule?
Its value is 20.7 ± 1.9%.

And the “Incidence of severe EAE” value (EAE in Lewis rats [2]; [7])?
The value was 3 of 5.

What about the “Mean # days with severe EAE” value (EAE in Lewis rats [2]; [7]) of the same molecule?
Its value is 1.3 ± 1.4 days.

And the Mean cum. score (EAE in Lewis rats [2]; [7])?
The Mean cum. score was 11.2 ± 5.9.

What about the Mean maximal score (EAE in Lewis rats [2]; [7]) of the same molecule?
Its Mean maximal score is 2.0 ± 1.0.

What about the Median cum. score (EAE in Lewis rats [2]; [7]) of the same molecule?
The Median cum. score was 8.3.

And the Median maximal score (EAE in Lewis rats [2]; [7])?
Its Median maximal score is 2.0.

What about the “% mean maximal weight loss” value (EAE in Lewis rats [2]; [8]) of the same molecule?
The value was 15.2 ± 6.5%.

What about the “Incidence of severe EAE” value (EAE in Lewis rats [2]; [8]) of the same molecule?
Its value is 8 of 11.

What about the “Mean # days with severe EAE” value (EAE in Lewis rats [2]; [8]) of the same molecule?
Its value is 1.4 ± 1.2 days.

And the Mean cum. score (EAE in Lewis rats [2]; [8])?
The Mean cum. score was 11.1 ± 5.2.

What about the Mean maximal score (EAE in Lewis rats [2]; [8]) of the same molecule?
Its Mean maximal score is 2.1 ± 0.8.

And the Median cum. score (EAE in Lewis rats [2]; [8])?
The Median cum. score was 8.3.

And the Median maximal score (EAE in Lewis rats [2]; [8])?
Its Median maximal score is 2.0.

And the “Incidence of severe EAE” value (EAE in Lewis rats [2]; [9])?
The value was 6 of 6.

And the “Mean # days with severe EAE (A-P)” value (EAE in Lewis rats [2]; [9])?
The value was 1.9 ± 2.1 days.

And the Mean cum. score (EAE in Lewis rats [2]; [10])?
Its Mean cum. score is 7.2 ± 3.8.

What about the Mean maximal score (EAE in Lewis rats [2]; [10]) of the same molecule?
Its Mean maximal score is 2.2 ± 1.0.

And the Median cum. score (EAE in Lewis rats [2]; [10])?
Its Median cum. score is 5.9.

What about the Median maximal score (EAE in Lewis rats [2]; [10]) of the same molecule?
The Median maximal score was 2.5.

What about the “Incidence of severe EAE” value (EAE in Lewis rats [2]; [11]) of the same molecule?
The value was 2 of 7.

What about the “Mean # days with severe EAE (A-P)” value (EAE in Lewis rats [2]; [11]) of the same molecule?
The value was 0.4 ± 0.6 days.

And the Mean cum. score (EAE in Lewis rats [2]; [12])?
The Mean cum. score was 3.1 ± 2.2.

And the Mean maximal score (EAE in Lewis rats [2]; [12])?
Its Mean maximal score is 1.0 ± 1.1.

What about the Median cum. score (EAE in Lewis rats [2]; [12]) of the same molecule?
Its Median cum. score is 2.5.

And the Median maximal score (EAE in Lewis rats [2]; [12])?
The Median maximal score was 0.5.

And the Mean cum. score (EAE in Lewis rats [2]; [13])?
Its Mean cum. score is 5.0 ± 3.6.

And the Mean maximal score (EAE in Lewis rats [2]; [13])?
Its Mean maximal score is 1.5 ± 1.2.

And the Median cum. score (EAE in Lewis rats [2]; [13])?
The Median cum. score was 4.0.

What about the Median maximal score (EAE in Lewis rats [2]; [13]) of the same molecule?
Its Median maximal score is 1.0.

What about the “Incidence of severe EAE” value (EAE in Lewis rats [2]; [14]) of the same molecule?
Its value is 8 of 13.

And the “Mean # days with severe EAE (A-P)” value (EAE in Lewis rats [2]; [14])?
The value was 1.1 ± 1.7 days.

What about the “course of EAE during treatment” value (EAE in Lewis rats [2]; treatment after onset, disease rebound after cessation on day 12 or day 14) of the same molecule?
Its value is “initial suppression of EAE”.
